Blank lines part the entries; values can stand above or below the substance they belong to.
Assays:
[1] = target: Trypanosoma brucei arginine methyltransferase 6 (TbPRMT6), SAH-bound (Trypanosoma brucei); experiment: ITC; AcH4-21 peptide (3 mM) injected into TbPRMT6 (100 uM) bound to SAH; MicroCal iTC200, 25 °C; 30 mM Tris pH 8.0, 100 mM NaCl, 1 mM EDTA; one-binding-site model
[2] = target: Trypanosoma brucei arginine methyltransferase 6 (TbPRMT6) (Trypanosoma brucei); experiment: ITC; 3 mM AcH4-21 peptide injected into 100 µM TbPRMT6 with SAH bound; 25°C; 30 mM Tris pH 8.0, 100 mM NaCl, 1 mM EDTA; one-binding-site model
[3] = target: Trypanosoma brucei arginine methyltransferase 6 (TbPRMT6) (Trypanosoma brucei); experiment: SAXS; FL-TbPRMT6 at 1.0, 3.0 and 5.0 mg/ml in 30 mM Tris pH 8.0, 200 mM NaCl, 1 mM EDTA; molecular mass by SAXSMOW

Substance: AcH4-21, peptide corresponding to the first 21 residues of bovine histone H4
- stoichiometry N [1]: 1.79

Substance: peptide corresponding to the first 21 residues of bovine histone H4 (AcH4-21)
- Kd [2]: 45 µM

- stoichiometry N [3]: 2
Substance: Trypanosoma brucei arginine methyltransferase 6 (TbPRMT6) (enzyme)
